Assays:
[1] = system: toe swelling in rat induced by carrageenan; experiment: Acute inflammation of toe swelling in rat induced by carrageenan; format: in vivo; details: for Swelling degree 1 h: 1 h after carrageenan; for Swelling degree 1 h / Swelling degree 3 h / Swelling degree 5 h / Swelling degree 7 h: rat foot; for Swelling degree 3 h: 3 h after carrageenan; for Swelling degree 5 h: 5 h after carrageenan; for Swelling degree 7 h: 7 h after carrageenan
Description: 80 SD rats were randomly divided into 8 groups with 10 mice for each group. […] The drug was administered once by injection, and the model group was given an equal volume of physiological saline and fed normally. On the third day, 0.1 mL of 1% carrageenan was injected subcutaneously into the right hind toes of the rats to induce inflammation. The foot volume was measured at 1 h, 3 h, 5 h, and 7 h after inflammation. The swelling degree of the foot was calculated according to the following formula: the swelling degree of the foot (mL)=the volume of the foot after inflammation—the volume before inflammation. The number of milliliters of spilled liquid was recorded (method: the protruding point of the right joint was circled with a ballpoint pen and used as a measurement mark, and the right hind feet of the rat were sequentially placed in the volume measuring device, so that the hind limbs were exposed outside the cylinder, and the depth of the immersion was limited to the overlap of the circle and the liquid level. After the foot entered the liquid, the liquid level was raised, and the volume of the spilled liquid was the volume of the right hind foot of the rat, and the normal volume of the right hind foot of each rat is sequentially determined).

[2] = system: adjuvant arthritis in rat; experiment: Chronic inflammation of adjuvant arthritis in rat; format: in vivo; set-up: key to Clinical score Whole body: sum of hind/fore foot, ear, nose, tail scores; full score 8; details: for Clinical score Whole body: full score 8; for Foot swelling degree Left: left hind foot (primary inflammation); for Clinical score Arthritis index: maximum score 16; for Foot swelling degree Right: right foot (secondary inflammation)
Description: 80 SPF SD rats were randomly divided into 8 groups. Rats in each group were lightly anesthetized with ether. Then, 0.1 mL of complete Freund's adjuvant containing inactivated Mycobacterium tuberculosis was injected subcutaneously into the left hind foot of the rats. Primary arthritis occurred in the left hind foot of the rat, and at about 13 days post-modeling, secondary arthritis occurred in the right hind foot. A blank control group was injected with an equal volume of physiological saline. The drug was administered 13 days after modeling. A methotrexate group was administered by injection every 5 days for 15 days, 4 times in total; the fusion protein I, protein II, protein III, protein IV, and protein V at high, medium and low doses (128 mg/kg, 32 mg/kg, 8 mg/kg) were administered by injection every 5 days for 15 days.
Using a foot volume measuring method, a marker was made with a fat-soluble marker at the left and right posterior ankle joint of each rat, and the left and right hind feet of the animal were respectively immersed in the volume measuring device. The immersion depth was bounded by the marker, and the reading value at the scale pipette of the device was the initial volume of the animal's left and right hind feet.
The day of modeling was considered as the 0th day and recorded as d0. The volume of the left hind foot (modeling foot) was measured from the first day d1 after modeling every 2 days. When the swelling occurred (i.e., secondary arthritis occurred) at the contralateral non-inflammatory foot (right hind foot), the administration was started. The volume of the left and right hind feet was measured every 2 days, and the degree of primary and secondary toe swelling was determined, which was calculated as follows:
Primary toe swelling (mL)=left hind foot volume on the day of measurement-initial volume of left hind foot
Secondary toe swelling (mL)=right hind foot volume on the day of measurement-initial volume of right hind foot 2. Clinical score
Systemic score: the systemic score was taken every 2 days after the onset of secondary inflammation.
Hind foot: no swelling=0 score, one hind foot swelling=1 score, two hind feet swelling=2 scores;
Forefoot: no swelling=0 score, one forefoot swelling=1 score, two forefeet swelling=2 scores;
Ear: no redness and nodules=0 score, redness or nodules in one ear=1 score, redness and nodules in both ears=2 scores;
Nose: no swelling=0 score, obvious swelling=1 score;
Tail: no nodules=0 score, with nodules=1 score; full score was 8 scores.
Arthritis index score: the arthritis index score was performed every 2 days after the onset of secondary inflammation.
The initial body weight of each group of rats was weighed before modeling. The body weight was measured every 2 days from d1 after modeling, from which the initial body weight was subtracted to obtain the weight gain of each group of rats.

[3] = system: IL-1β production by mouse peritoneal macrophages; experiment: IL-1β production by mouse peritoneal macrophages (ELISA); format: cell-based
Description: (1) IL-1β production: mice were intraperitoneally injected with 1 mL of broth medium containing 6% starch, and three days later, the mouse peritoneal macrophages were aseptically taken, washed twice with a 1640 medium, and the cell concentration was adjusted to 2×10^6 cells/mL, inoculated into a 24-well culture plate at 1 mL/well, incubated for 3 h in a cell incubator, and shaken once every 30 min, so that the cells were allowed to adhere sufficiently. Then, the cells were washed twice with a culture liquid to remove un-adhered cells. […] The supernatant was taken as a sample for testing activity of IL-1β.
(2) Determination of IL-1β content: the detection was performed by using mouse IL-1β enzyme-linked immunosorbent assay kit from R&D company. According to the instructions of the kit, the procedures were as follows: the reaction well for the test samples and different concentrations of standards were sealed with sealing tapes, respectively, incubation was performed at 37° C. for 90 min; the plate was washed four times; a biotinylated antibody working solution (100 μL/well) was added, the reaction well was sealed with sealing tapes, and incubation was performed at 37° C. for 60 min; the plate was washed four times; an enzyme conjugate working solution (100 μL/well) was added, the reaction well was sealed with sealing tapes, incubation was performed at 37° C. for 30 min; the plate was washed four times; a developer (100 μL/well) was added, incubation was performed at 37° C. for 10 to 20 min, a stop solution (100 μL/well) was added and mixed and the OD450 value was measured.

B1: Protein II: IgG2-Fc linked to antiangiogenesis polypeptide EDSM-Y via a flexible linker; SEQ ID NO: 17 (protein)
chain: ERKCCVECPPCPAPPVAGPSVFLFPPKPKDTLMISRTPEVTCVVVDVSHEDPEVQFNWYVDGVEVHNAKTKPREEQFNSTFRVVSVLTVVHQDWLNGKEYKCKVSNKGLPAPIEKTISKTKGQPREPQVYTLPPSREEMTKNQVSLTCLVKGFYPSDISVEWESNGQPENNYKTTPPMLDSDGSFFLYSKLTVDKSRWQQGNVFSCSVMHEALHNHYTQKSLSLSPGKGGGGSGGGGSGGGGSFQPVLHLVALNSPLSGGMRGIRGADFQCFQQARAVGLAGTFRAGGGGRGD
In the case of B1, the “Swelling degree 1 h” value ([1]; 8 mg/kg) is reported as 0.29 ± 0.25 mL, the “Swelling degree 3 h” value ([1]; 8 mg/kg) is reported as 0.34 ± 0.09 mL and the “Swelling degree 5 h” value ([1]; 8 mg/kg) is reported as 0.36 ± 0.12 mL. For the same molecule, the “Swelling degree 7 h” value ([1]; 8 mg/kg) was 0.41 ± 0.09 mL, the “Swelling degree 1 h” value ([1]; 32 mg/kg) was 0.27 ± 0.06 mL and the “Swelling degree 3 h” value ([1]; 32 mg/kg) was 0.41 ± 0.18 mL. For the same molecule, the “Swelling degree 5 h” value ([1]; 32 mg/kg) was 0.37 ± 0.11 mL, the “Swelling degree 7 h” value ([1]; 32 mg/kg) was 0.33 ± 0.02 mL and the “Swelling degree 1 h” value ([1]; 128 mg/kg) was 0.21 ± 0.16 mL. The “Swelling degree 3 h” value ([1]; 128 mg/kg) was 0.32 ± 0.10 mL, the “Swelling degree 5 h” value ([1]; 128 mg/kg) was 0.41 ± 0.05 mL and the “Swelling degree 7 h” value ([1]; 128 mg/kg) was 0.36 ± 0.16 mL. For the same molecule, the “inhibition of toe swelling induced by carrageenan” value ([1]; high doses) was “could significantly inhibit toe swelling”, the “inhibition of toe swelling induced by carrageenan” value ([1]; low dose) was “not significant” and the Weight gain ([2]; 8 mg/kg) was 44.96 ± 12.11 g. For the same molecule, the “Clinical score Whole body” value ([2]; 8 mg/kg) was 2.23 ± 0.26, the “Foot swelling degree Left” value ([2]; 8 mg/kg) was 1.95 ± 0.12 mL and the “Clinical score Arthritis index” value ([2]; 8 mg/kg) was 6.92 ± 0.55. The “Foot swelling degree Right” value ([2]; 8 mg/kg) was 1.77 ± 0.54 mL, the Weight gain ([2]; 32 mg/kg) was 48.10 ± 9.19 g and the “Clinical score Whole body” value ([2]; 32 mg/kg) was 1.81 ± 0.32. For the same molecule, the “Foot swelling degree Left” value ([2]; 32 mg/kg) was 1.60 ± 0.19 mL, the “Clinical score Arthritis index” value ([2]; 32 mg/kg) was 5.69 ± 0.37 and the “Foot swelling degree Right” value ([2]; 32 mg/kg) was 1.54 ± 0.33 mL. For the same molecule, the Weight gain ([2]; 128 mg/kg) was 50.83 ± 15.19 g, the “Clinical score Whole body” value ([2]; 128 mg/kg) was 1.54 ± 0.19 and the “Foot swelling degree Left” value ([2]; 128 mg/kg) was 1.35 ± 0.14 mL. The “Clinical score Arthritis index” value ([2]; 128 mg/kg) was 4.17 ± 0.64, the “Foot swelling degree Right” value ([2]; 128 mg/kg) was 1.35 ± 0.73 mL and the “therapeutic effect on primary arthritis (primary toe swelling degree)” value ([2]; high dose groups, compared with the model group) was “effective”. For the same molecule, the “IL-1β” value ([3]; dose 8 μg/mL) was 746.38 ± 16.59 pg/mL, the “PI (%)” value ([3]; dose 8 μg/mL) was 11.85% and the “IL-1β” value ([3]; dose 32 μg/mL) was 596.02 ± 19.97 pg/mL. The “PI (%)” value ([3]; dose 32 μg/mL) was 29.61%, the “IL-1β” value ([3]; dose 128 μg/mL) was 440.56 ± 11.38 pg/mL and the “PI (%)” value ([3]; dose 128 μg/mL) was 47.97%. For the same molecule, the “inhibition of IL-1β production” value ([3]; in words) was “could significantly inhibit IL-1β production”.

From US11407811B2, “Fusion protein, preparation method therefor and use thereof” (JIANGSU RONGTAI BIOTECH CO., LTD., priority 2017, dated 2022)
